Patent US20240190989A1 (BEIGENE SWITZERLAND, published 2024)
Where two headings read alike, the source gives them in different places.

T1: full-length human CEA on cells (MKN45, LOVO, L929/huCEA, CT26/CEA, CT26-OS8-CEA) (human, UniProt P06731 35-685)
T1 construct: also called CEACAM5; native CEA
T1 sequence: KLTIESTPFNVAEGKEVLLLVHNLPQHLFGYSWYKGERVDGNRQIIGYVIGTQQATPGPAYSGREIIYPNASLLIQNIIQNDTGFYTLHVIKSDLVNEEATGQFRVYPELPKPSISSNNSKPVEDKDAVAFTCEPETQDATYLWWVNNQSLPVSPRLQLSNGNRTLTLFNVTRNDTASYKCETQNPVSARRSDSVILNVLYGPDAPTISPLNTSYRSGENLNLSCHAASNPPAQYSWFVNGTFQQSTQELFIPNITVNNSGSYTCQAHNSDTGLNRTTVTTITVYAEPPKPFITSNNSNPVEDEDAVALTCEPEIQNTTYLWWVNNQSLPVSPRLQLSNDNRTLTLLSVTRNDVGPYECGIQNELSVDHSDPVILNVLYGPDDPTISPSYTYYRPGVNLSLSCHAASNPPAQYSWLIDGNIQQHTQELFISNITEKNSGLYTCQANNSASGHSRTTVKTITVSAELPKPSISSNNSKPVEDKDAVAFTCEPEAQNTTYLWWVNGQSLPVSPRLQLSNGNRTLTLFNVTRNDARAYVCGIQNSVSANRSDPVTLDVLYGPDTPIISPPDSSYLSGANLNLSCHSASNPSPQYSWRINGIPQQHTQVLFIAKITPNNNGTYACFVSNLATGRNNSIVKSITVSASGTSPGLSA

B1: BE-189 (Format A BGA-5623) (bispecific antibody, human IgG1, kappa)
heavy: QVQLVQSGAEVKKPGASVKVSCKASGYIFTSYYLHWVRQAPGQGLEWIGYINPQTGKTSYAQKFQGRVTMTRDTSTSTVYMELSSLRSEDTAVYYCAREYGNYNYPLDYWGQGTLVTVSSASTKGPSVFPLAPSSKSTSGGTAALGCLVKDYFPEPVTVSWNSGALTSGVHTFPAVLQSSGLYSLSSVVTVPSSSLGTQTYICNVNHKPSNTKVDKKVEPKSCDKTHTCPPCPAPPAAGPSVFLFPPKPKDTLMISRTPEVTCVVVDVSHEDPEVKFNWYVDGVEVHNAKTKPREEQYNSTYRVVSVLTVLHQDWLNGKEYKCKVSNKALAAPIEKTISKAKGQPREPQVYTLPPSREEMTKNQVSLTCLVKGFYPSDIAVEWESNGQPENNYKTTPPVLDSDGSFFLYSKLTVDKSRWQQGNVFSCSVMHEALHNHYTQKSLSLSPGKGGGGSEVQLLESGGGLVQPGGSLRLSCAASGFTVSAEDVGWVRQAPGKGLEWVSAILDKGGSTYYAESVKGRFTISRDNAKNTLYLQMSSLRAEDTAVYYCARIVYHAGGGVTFDTRGQGTQVTVSS
light: DIQMTQSPSSLSASVGDRVTITCRASENQYGYLAWYQQKPGKVPKLLIYNYKNLVEGVPSRFSGSGSGTDFTLTISSLQPEDVATYYCQHHLGTPYTFGQGTKVEIKRTVAAPSVFIFPPSDEQLKSGTASVVCLLNNFYPREAKVQWKVDNALQSGNSQESVTEQDSKDSTYSLSSTLTLSKADYEKHKVYACEVTHQGLSSPVTKSFNRGEC
notes: Module ratio 2:2, inert Fc
B2: Format A BGA-3386 (bispecific antibody, human IgG1, kappa)
heavy: QVQLVQSGAEVKKPGASVKVSCKASGYIFTSYYLHWVRQAPGQGLEWIGYINPQTGKTSYAQKFQGRVTMTRDTSTSTVYMELSSLRSEDTAVYYCAREYGNYNYPLDYWGQGTLVTVSSASTKGPSVFPLAPSSKSTSGGTAALGCLVKDYFPEPVTVSWNSGALTSGVHTFPAVLQSSGLYSLSSVVTVPSSSLGTQTYICNVNHKPSNTKVDKKVEPKSCDKTHTCPPCPAPPAAGPSVFLFPPKPKDTLMISRTPEVTCVVVDVSHEDPEVKFNWYVDGVEVHNAKTKPREEQYNSTYRVVSVLTVLHQDWLNGKEYKCKVSNKALAAPIEKTISKAKGQPREPQVYTLPPSREEMTKNQVSLTCLVKGFYPSDIAVEWESNGQPENNYKTTPPVLDSDGSFFLYSKLTVDKSRWQQGNVFSCSVMHEALHNHYTQKSLSLSPGKGGGGSEVQLLESGGGLVQPGGSLRLSCAASGFTVSAEDVGWVRQAPGKGLEWVSAILDKGGSTYYAESVKGRFTISRDNAKNTLYLQMSSLRAEDTAVYYCARIVYHAGGGVTFDTWGQGTLVTVSS
light: DIQMTQSPSSLSASVGDRVTITCRASENQYGYLAWYQQKPGKVPKLLIYNYKNLVEGVPSRFSGSGSGTDFTLTISSLQPEDVATYYCQHHLGTPYTFGQGTKVEIKRTVAAPSVFIFPPSDEQLKSGTASVVCLLNNFYPREAKVQWKVDNALQSGNSQESVTEQDSKDSTYSLSSTLTLSKADYEKHKVYACEVTHQGLSSPVTKSFNRGEC
B3: A-CD137/CEA (Format A: BGA-4712 VH fused to the C-terminus of the Fc of the anti-CEA antibody) (bispecific antibody, human IgG1, kappa)
heavy: QVQLVQSGAEVKKPGASVKVSCKASGYIFTSYYLHWVRQAPGQGLEWIGYINPQTGKTSYAQKFQGRVTMTRDTSTSTVYMELSSLRSEDTAVYYCAREYGNYNYPLDYWGQGTLVTVSSASTKGPSVFPLAPSSKSTSGGTAALGCLVKDYFPEPVTVSWNSGALTSGVHTFPAVLQSSGLYSLSSVVTVPSSSLGTQTYICNVNHKPSNTKVDKKVEPKSCDKTHTCPPCPAPPAAGPSVFLFPPKPKDTLMISRTPEVTCVVVDVSHEDPEVKFNWYVDGVEVHNAKTKPREEQYNSTYRVVSVLTVLHQDWLNGKEYKCKVSNKALAAPIEKTISKAKGQPREPQVYTLPPSREEMTKNQVSLTCLVKGFYPSDIAVEWESNGQPENNYKTTPPVLDSDGSFFLYSKLTVDKSRWQQGNVFSCSVMHEALHNHYTQKSLSLSPGKGGGGSEVQLLESGGGLVQPGGSLRLSCAASGFMLSAEDVGWVRQAPGKGLEWVSAILDFGGSTYYADSVKGRFTISRDNSKNTLYLQMNSLRAEDTAVYYCARVVYHAGGGVTFDYWGQGTLVTVSS
light: DIQMTQSPSSLSASVGDRVTITCRASENQYGYLAWYQQKPGKVPKLLIYNYKNLVEGVPSRFSGSGSGTDFTLTISSLQPEDVATYYCQHHLGTPYTFGQGTKVEIKRTVAAPSVFIFPPSDEQLKSGTASVVCLLNNFYPREAKVQWKVDNALQSGNSQESVTEQDSKDSTYSLSSTLTLSKADYEKHKVYACEVTHQGLSSPVTKSFNRGEC
notes: Symmetric IgG-like molecule, inert Fc; also called A-CEAxCD137; A-CEA/CD137
B4: BGA-4712-M3-mutFc (Fc fusion VH) (Fc fusion)
chain: EVQLLESGGGLVQPGGSLRLSCAASGFTLSAEDVGWVRQAPGKGLEWVSAILDFGGSTYYAESVKGRFTISRDNAKNTLYLQMSSLRAEDTAVYYCARVVYHAGGGVTFDYWGQGTLVTVSSGGGGSDKTHTCPPCPAPPAAGPSVFLFPPKPKDTLMISRTPEVTCVVVDVSHEDPEVKFNWYVDGVEVHNAKTKPREEQYNSTYRVVSVLTVLHQDWLNGKEYKCKVSNKALAAPIEKTISKAKGQPREPQVYTLPPSREEMTKNQVSLTCLVKGFYPSDIAVEWESNGQPENNYKTTPPVLDSDGSFFLYSKLTVDKSRWQQGNVFSCSVMHEALHNHYTQKSLSLSPGK
B5: D-CD137/CEA (Format D: BGA-4712 VH fused to the N-terminus of the heavy chain of the anti-CEA antibody) (bispecific antibody, human IgG1, kappa)
heavy: EVQLLESGGGLVQPGGSLRLSCAASGFMLSAEDVGWVRQAPGKGLEWVSAILDFGGSTYYADSVKGRFTISRDNSKNTLYLQMNSLRAEDTAVYYCARVVYHAGGGVTFDYWGQGTLVTVSSSGGGGSQVQLVQSGAEVKKPGASVKVSCKASGYIFTSYYLHWVRQAPGQGLEWIGYINPQTGKTSYAQKFQGRVTMTRDTSTSTVYMELSSLRSEDTAVYYCAREYGNYNYPLDYWGQGTLVTVSSASTKGPSVFPLAPSSKSTSGGTAALGCLVKDYFPEPVTVSWNSGALTSGVHTFPAVLQSSGLYSLSSVVTVPSSSLGTQTYICNVNHKPSNTKVDKKVEPKSCDKTHTCPPCPAPPAAGPSVFLFPPKPKDTLMISRTPEVTCVVVDVSHEDPEVKFNWYVDGVEVHNAKTKPREEQYNSTYRVVSVLTVLHQDWLNGKEYKCKVSNKALAAPIEKTISKAKGQPREPQVYTLPPSREEMTKNQVSLTCLVKGFYPSDIAVEWESNGQPENNYKTTPPVLDSDGSFFLYSKLTVDKSRWQQGNVFSCSVMHEALHNHYTQKSLSLSPGK
light: DIQMTQSPSSLSASVGDRVTITCRASENQYGYLAWYQQKPGKVPKLLIYNYKNLVEGVPSRFSGSGSGTDFTLTISSLQPEDVATYYCQHHLGTPYTFGQGTKVEIKRTVAAPSVFIFPPSDEQLKSGTASVVCLLNNFYPREAKVQWKVDNALQSGNSQESVTEQDSKDSTYSLSSTLTLSKADYEKHKVYACEVTHQGLSSPVTKSFNRGEC
notes: Symmetric IgG-like molecule, inert Fc; also called D-CEAxCD137
B6: BGA-7556-mutFc (Fc fusion VH) (Fc fusion)
chain: EVQLLESGGGLVQPGGSLRLSCAASGFTLSAEDVGWVRQAPGKGLEWVSAILDFGGSTYYAESVKGRFTISRDNAKNTLYLQMSSLRAEDTAVYYCARVVYHAGGGVTFDYRGQGTQVTVSSGGGGSDKTHTCPPCPAPPAAGPSVFLFPPKPKDTLMISRTPEVTCVVVDVSHEDPEVKFNWYVDGVEVHNAKTKPREEQYNSTYRVVSVLTVLHQDWLNGKEYKCKVSNKALAAPIEKTISKAKGQPREPQVYTLPPSREEMTKNQVSLTCLVKGFYPSDIAVEWESNGQPENNYKTTPPVLDSDGSFFLYSKLTVDKSRWQQGNVFSCSVMHEALHNHYTQKSLSLSPGK

Tests used:
[1] = molecular target: T2, full-length human CD137 on cells (Hut78/huCD137, HEK293 transfectants, JK-NFKB-CD137) (human, UniProt Q07011 24-255); experiment: cell-based or functional assay
[2] = molecular target: T2, full-length human CD137 on cells …; experiment: cell-based or functional assay; remark: listed apart in the source
human CD137 ECD-mIgG2a [3] = molecular target: T3, human CD137 ECD-mIgG2a (human); experiment: SPR, A-CEAxCD137 format
T3 construct: ECD 24-183 of huCD137 fused to mouse IgG2a Fc; also called huCD137-mIgG2a; huCD137

[4] = molecular target: T2, full-length human CD137 on cells …; experiment: flow cytometry on Hut78/huCD137 cells
Source text: Cell fluorescence was quantified using a flow cytometer (Guava easyCyte™ 8HT, Merck-Millipore, USA).

[5] = molecular target: T1, full-length human CEA on cells (MKN45, …); experiment: flow cytometry on CT26/CEA cells
[6] = molecular target: T2, full-length human CD137 on cells …; experiment: flow cytometry on Hut78/huCD137 cells; remark: listed apart in the source
human CD137 ECD-mIgG2a [7] = molecular target: T3, human CD137 ECD-mIgG2a; experiment: SPR, human CD137 ECD-mIgG2a
[8] = molecular target: T2, full-length human CD137 on cells …; experiment: flow cytometry on Hut78/huCD137 cells; remark: listed apart in the source
human CD137 ECD-mIgG2a [9] = molecular target: T3, human CD137 ECD-mIgG2a; experiment: SPR, Fc fusion VH
human CD137 ECD-mIgG2a [10] = molecular target: T3, human CD137 ECD-mIgG2a; experiment: SPR, Fc-fusion VH captured
Procedure: Characterization of anti-huCD137 VH domain antibodies were made by SPR assays using BIAcore™ T-200 (GE Life Sciences). Briefly, anti-human IgG (Fc) antibody was immobilized on an activated CM5 biosensor chip (Cat.: BR100839, GE Life Sciences). Anti-huCD137 domain antibodies were flowed over the chip surface and captured by anti-human IgG (Fc) antibody. […] The equilibrium dissociation constant (KD) was calculated as the ratio koff/kₒₙ.
Affinity comparison on CD137 affinity matured variants was made by SPR assays using BIAcore™ T-200 (GE Life Sciences) and flow cytometry as described.

T3 sequence (chain, as listed by the source limits assumed): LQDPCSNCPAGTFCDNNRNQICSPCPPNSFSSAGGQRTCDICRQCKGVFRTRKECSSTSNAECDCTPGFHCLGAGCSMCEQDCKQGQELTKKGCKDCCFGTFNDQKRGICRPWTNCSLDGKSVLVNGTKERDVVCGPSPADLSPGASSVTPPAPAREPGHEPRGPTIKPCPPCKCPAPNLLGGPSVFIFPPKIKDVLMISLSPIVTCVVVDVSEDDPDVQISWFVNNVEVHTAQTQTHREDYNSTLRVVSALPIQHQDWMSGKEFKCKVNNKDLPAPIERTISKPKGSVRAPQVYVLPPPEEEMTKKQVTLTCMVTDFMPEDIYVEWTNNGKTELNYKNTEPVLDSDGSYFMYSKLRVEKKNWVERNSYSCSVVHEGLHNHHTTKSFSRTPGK
T2 sequence (Q07011 24-255 limits assumed): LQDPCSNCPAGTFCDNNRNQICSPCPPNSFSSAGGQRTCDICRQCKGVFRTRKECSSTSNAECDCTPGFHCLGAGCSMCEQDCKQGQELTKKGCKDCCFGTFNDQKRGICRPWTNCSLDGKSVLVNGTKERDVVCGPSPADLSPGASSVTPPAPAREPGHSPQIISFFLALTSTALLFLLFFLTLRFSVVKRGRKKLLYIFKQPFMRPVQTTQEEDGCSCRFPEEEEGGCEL

Binder | Functions EC50 (PBMC cytokine release) [2] [µg/mL] | Kd (human CD137 ECD-mIgG2a [3]) [nM] | EC50 [4] [µg/mL] | EC50 [5] [µg/mL] | EC50 [6] [µg/mL] | Kd (human CD137 ECD-mIgG2a [7]) [nM] | EC50 [8] [µg/mL] | Kd (human CD137 ECD-mIgG2a [9]) [nM] | Kd (human CD137 ECD-mIgG2a [10]) [nM] | other results
B1 | 0.341 | 94.8 | 0.38 | – | – | – | – | – | – | Functional assay EC50 (PBMC cytokine release, in vitro CD137 activation) [1]: 0.31 µg/mL
B2 | 0.0768 | 21.4 | 0.21 | – | – | – | – | – | – | –
B3 | – | – | – | 0.75 | 0.57 | 360 | – | – | – | –
B4 | – | – | – | – | – | – | 2.37 | 169 | 169 | –
B5 | – | – | – | 3.78 | 2.28 | 78 | – | – | – | –
B6 | – | – | – | – | – | – | 5.71 | 200 | 200 | –
